# Reference: patent US20150344570A1 (published 2015)
# T1: FcγRIIb extracellular domain with C-terminal His tag (human, UniProt P31994 43-217)
# T1 construct: extracellular domain; Soluble receptor expressed in FreeStyle293 cells, used as analyte in Biacore; also called FcgRIIb; 2b; not shown: His tag attached to the C terminus
# T1 sequence (looked up): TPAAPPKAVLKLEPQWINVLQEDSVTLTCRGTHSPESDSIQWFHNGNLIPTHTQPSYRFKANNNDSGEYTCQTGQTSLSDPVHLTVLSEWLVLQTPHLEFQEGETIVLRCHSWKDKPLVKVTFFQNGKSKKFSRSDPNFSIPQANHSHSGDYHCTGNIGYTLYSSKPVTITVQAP
# B1: GpH7-A5/GpH7-B3 variant S267_10E/GpL16-k0 (antibody, human IgG1, kappa)
# heavy 1: not shown
# heavy 2: not shown
# light: DIVMTQSPLSLPVTPGEPASISCQASESLVHSNRNTYLHWYLQKPGQSPQLLIYKVSNRFSGVPDRFSGSGSGTDFTLKISRVEAEDVGVYYCSQNTHVPPTFGQGTKVEIERTVAAPSVFIFPPSDEQLKSGTASVVCLLNNFYPREAKVQWKVDNALQSGNSQESVTEQDSKDSTYSLSSTLTLSKADYEKHKVYACEVTHQGLSSPVTKSFNRGEC
# notes: Heterodimerized antibody (He Ab) with the mutation in only one H chain; also called He Ab S267E
# B2: GpH7-A5/GpH7-B3 variant H268_02A/GpL16-k0 (antibody, human IgG1, kappa)
# heavy 1: not shown
# heavy 2: not shown
# light: B1 light
# notes: Heterodimerized antibody (He Ab) with the mutation in only one H chain; also called He Ab H268A
# B3: GpH7-A5/GpH7-B3 variant S267_15Y/GpL16-k0 (antibody, human IgG1, kappa)
# heavy 1: not shown
# heavy 2: not shown
# light: B1 light
# notes: Heterodimerized antibody (He Ab) with the mutation in only one H chain; also called He Ab S267Y
# B4: GpH7-A5/GpH7-B3 variant H268_13S/GpL16-k0 (antibody, human IgG1, kappa)
# heavy 1: not shown
# heavy 2: not shown
# light: B1 light
# notes: Heterodimerized antibody (He Ab) with the mutation in only one H chain; also called He Ab H268S
# B5: GpH7-A5/GpH7-B3 variant H268_18N/GpL16-k0 (antibody, human IgG1, kappa)
# heavy 1: not shown
# heavy 2: not shown
# light: B1 light
# notes: Heterodimerized antibody (He Ab) with the mutation in only one H chain; also called He Ab H268N
# B6: GpH7-A5/GpH7-B3 variant H268_20W/GpL16-k0 (antibody, human IgG1, kappa)
# heavy 1: not shown
# heavy 2: not shown
# light: B1 light
# notes: Heterodimerized antibody (He Ab) with the mutation in only one H chain; also called He Ab H268W
# B7: GpH7-A5/GpH7-B3 variant P271_08L/GpL16-k0 (antibody, human IgG1, kappa)
# heavy 1: not shown
# heavy 2: not shown
# light: B1 light
# notes: Heterodimerized antibody (He Ab) with the mutation in only one H chain; also called He Ab P271L
# B8: GpH7-A5/GpH7-B3 variant S267_14T/GpL16-k0 (antibody, human IgG1, kappa)
# heavy 1: not shown
# heavy 2: not shown
# light: B1 light
# notes: Heterodimerized antibody (He Ab) with the mutation in only one H chain; also called He Ab S267T
# Biological target: T2, FcγRIIIa extracellular domain with C-terminal His tag (human, UniProt P08637 17-208)
# T2 construct: extracellular domain; also called FcgRIIIa; 3a; not shown: His tag attached to the C terminus
# T2 sequence (P08637 17-208): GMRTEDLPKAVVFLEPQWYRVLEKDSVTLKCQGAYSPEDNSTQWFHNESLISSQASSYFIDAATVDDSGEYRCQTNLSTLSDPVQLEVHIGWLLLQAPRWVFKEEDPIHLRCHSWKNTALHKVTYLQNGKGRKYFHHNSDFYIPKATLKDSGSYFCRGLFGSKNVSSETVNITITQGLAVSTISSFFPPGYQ
# Assay: SPR (Biacore); He/Con_3a (FcγRIIIa) divided by He/Con_2b (FcγRIIb)
row,He_3a/2b (IIIa/IIb) [ratio],Binder
1,0.24,B1
2,0.73,B2
3,0.31,B3
4,0.76,B4
5,0.67,B5
6,0.74,B6
7,0.69,B7
8,0.44,B8

# Biological target: T2, FcγRIIIa extracellular domain with …
# Assay: SPR (Biacore T100), antibody captured on antigen peptide chip, FcγR as analyte
# Procedure: (§1) Analysis of interaction between objective antibody and the FcγR was carried out using Biacore T100 (GE Healthcare). HBS-EP+ (GE Healthcare) was used as the running buffer, and the measurement temperature was set to 25° C. Chips produced by immobilizing the antigen peptide by the amine coupling method to a Series S Sencor Chip CM5 (GE Healthcare), or alternatively, chips produced by allowing preliminarily biotinylated antigen peptides to interact with and immobilize onto a Series S Sensor Chip SA (certified) (GE Healthcare) were used. Antibodies of interest were captured onto an antigen peptide-immobilized chip, and allowed to interact to each FcγR diluted with running buffer. To regenerate and repeatedly use the chip, the antibodies captured on the chip were washed off by reacting 10 mM glycine-HCl, pH 1.5.
row,He/Con_3a,Binder
1,"91.9 relative binding, GpH7-A5/GpH7-B3/GpL16-k0 = 100",B1
2,"122 relative binding, GpH7-A5/GpH7-B3/GpL16-k0 = 100",B2
3,"11.8 relative binding, GpH7-A5/GpH7-B3/GpL16-k0 = 100",B3
4,"122 relative binding, GpH7-A5/GpH7-B3/GpL16-k0 = 100",B4
5,"104 relative binding, GpH7-A5/GpH7-B3/GpL16-k0 = 100",B5
6,"82.8 relative binding, GpH7-A5/GpH7-B3/GpL16-k0 = 100",B6
7,"71 relative binding, GpH7-A5/GpH7-B3/GpL16-k0 = 100",B7
8,"45.6 relative binding, GpH7-A5/GpH7-B3/GpL16-k0 = 100",B8

# Biological target: T1, FcγRIIb extracellular domain with …
# Assay: as above
# Procedure: as §1
row,He/Con_2b,Binder
1,"379 relative binding, GpH7-A5/GpH7-B3/GpL16-k0 = 100",B1
2,"167 relative binding, GpH7-A5/GpH7-B3/GpL16-k0 = 100",B2
3,"37.9 relative binding, GpH7-A5/GpH7-B3/GpL16-k0 = 100",B3
4,"160 relative binding, GpH7-A5/GpH7-B3/GpL16-k0 = 100",B4
5,"156 relative binding, GpH7-A5/GpH7-B3/GpL16-k0 = 100",B5
6,"111 relative binding, GpH7-A5/GpH7-B3/GpL16-k0 = 100",B6
7,"103 relative binding, GpH7-A5/GpH7-B3/GpL16-k0 = 100",B7
8,"104 relative binding, GpH7-A5/GpH7-B3/GpL16-k0 = 100",B8
